Source: patent US20260083853A1, “CD70 ANTIBODY DRUG CONJUGATES AND METHODS OF USING THE SAME” (Genmab A/S, priority 2022, published 2026)

B1: 2E7 antibody (antibody, human IgG1, kappa, V domains shown)
VH: QVQLQESGPGLVKPSETLSLTCTVSGGSVSSDYYYWSWIRQPPGKGLEWLGYIYYSGSTNYNPSLKSRVTISVDTSKNQFSLKLRSVTTADTAVYYCARGDGDFLGVCFDYWGQGTLVTVSS
VL: EIVLTQSPATLSLSPGERATLSCRASQSVSSYLAWYQQKPGQAPRLLIFDASNRATGIPARFSGSGSGTDFTLTISSLEPEDFAVYYCQQRSNWPLTFGGGTKVEIKR
notes: Made in ExpiCHO-S cells and purified on Protein A; also called Ab 2E7; parental mAb (2E7)
B2: 1H8: anti-CD70 clone with "at least two more amino acid substitutions in HCDR3/LCDR3" "compared with the parent antibody 69A7" (antibody, V domains shown)
VH: QVQLQESGPGLVKPSETLSLTCTVSGGSVSSDYYYWSWIRQPPGKGLEWLGYIYYSGSTNYNPSLKSRVTISVDTSKNQFSLKLRSVTTADTAVYYCARGDGDFMGVCFDYWGQGTLVTVSS
VL: EIVLTQSPATLSLSPGERATLSCRASQSVSSYLAWYQQKPGQAPRLLIFDASNRATGIPARFSGSGSGTDFTLTISSLEPEDFAVYYCQQRSNWPLTFGGGTKVEIK
B3: 2E7-LD038 conjugate (antibody, human IgG1, kappa, DAR 8, V domains shown)
VH: QVQLQESGPGLVKPSETLSLTCTVSGGSVSSDYYYWSWIRQPPGKGLEWLGYIYYSGSTNYNPSLKSRVTISVDTSKNQFSLKLRSVTTADTAVYYCARGDGDFLGVCFDYWGQGTLVTVSS
VL: EIVLTQSPATLSLSPGERATLSCRASQSVSSYLAWYQQKPGQAPRLLIFDASNRATGIPARFSGSGSGTDFTLTISSLEPEDFAVYYCQQRSNWPLTFGGGTKVEIKR
modifications: Drug-Linker LD038 (PB038; PEG unit, cleavable linker, exatecan) attached to cysteines after TCEP reduction; DAR8 for the whole antibody; residues not stated
notes: The constant regions are tied to 2E7 by claim 120; also called PA038; ADC PA038
B4: 2A4: anti-CD70 clone with "at least two more amino acid substitutions in HCDR3/LCDR3" "compared with the parent antibody 69A7" (antibody, V domains shown)
VH: QVQLQESGPGLVKPSETLSLTCTVSGGSVSSDYYYWSWIRQPPGKGLEWLGYIYYSGSTNYNPSLKSRVTISVDTSKNQFSLKLRSVTTADTAVYYCARGDGDYGGNVFPYWGQGTLVTVSS
VL: EIVLTQSPATLSLSPGERATLSCRASQSVSSYLAWYQQKPGQAPRLLIFDASNRATGIPARFSGSGSGTDFTLTISSLEPEDFAVYYCQQRSNWPLTFGGGTKVEIK
B5: 2D2: anti-CD70 clone with "at least two more amino acid substitutions in HCDR3/LCDR3" "compared with the parent antibody 69A7" (antibody, V domains shown)
VH: QVQLQESGPGLVKPSETLSLTCTVSGGSVSSDYYYWSWIRQPPGKGLEWLGYIYYSGSTNYNPSLKSRVTISVDTSKNQFSLKLRSVTTADTAVYYCARGDGDYGGNCFDYWGQGTLVTVSS
VL: EIVLTQSPATLSLSPGERATLSCRASQSVSSYLAWYQQKPGQAPRLLIFDASNRATGIPARFSGSGSGTDFTLTISSLEPEDFAVYYCQQRLKFPLTFGGGTKVEIK

Key:
[1] = target: T1, Human CD70 on CD70-expressing human tumor cell lines (Raji, 786-O, Caki-1) (human, UniProt P32970 1-193); experiment: flow cytometry blocking assay on Raji cells; blocked ligand: biotinylated human CD27 at 30 ug/ml, detection with PE-conjugated streptavidin
T1 construct: whole, on cells; Endogenous CD70 on the cells; also called human CD70-expressing cell lines; CD70-positive cell lines 786-O, Raji and Caki-1
T1 sequence (looked up): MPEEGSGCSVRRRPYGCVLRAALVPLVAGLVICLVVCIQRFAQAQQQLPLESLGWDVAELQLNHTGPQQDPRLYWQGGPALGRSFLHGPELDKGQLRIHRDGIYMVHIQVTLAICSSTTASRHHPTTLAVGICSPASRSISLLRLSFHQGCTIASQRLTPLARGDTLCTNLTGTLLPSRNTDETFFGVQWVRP
Procedure: (§1) CD70-positive cell lines 786-O, Raji and Caki-1 were mixed with varying concentrations from 333.5 nM down to 6 nM of 2E7-LD038 conjugate, or 2E7 antibody, or negative binding control (B12), and incubated at 4° C. for 30 minutes. Cells were washed twice with PBS and then incubated with 30 µg/ml biotinylated human CD27 (the receptor for CD70) at 4° C. Staining was done using PE-conjugated streptavidin for 30 minutes and fluorescence was measured using flow cytometer.

[2] = target: T1, Human CD70 on CD70-expressing human …; experiment: flow cytometry blocking assay on Caki-1 cells; blocked ligand: biotinylated human CD27 at 30 ug/ml, detection with PE-conjugated streptavidin
Procedure: as §1

[3] = target: T1, Human CD70 on CD70-expressing human …; experiment: flow cytometry on Caki-1 cells, detection with PE-conjugated anti-human Fc, MFI(PE)
Procedure: (§2) The binding activity of 2E7 antibody or 2E7-LD038 ADC was evaluated by Flow cytometric analysis (Beckman, Cytoflex) with target-expressing cell lines, Raji, 786-O, Caki-1, and a cell line with negligible CD70 expression, MCF-7. 3×10⁵ cells were seeded per well at 96-well v-bottomed plate and incubated with 100 μl of 2E7 or 2E7-LD038 in serial dilutions. After 30 minutes of incubation at 4° C., cells were washed twice with PBS, stained with 100 μl of 1:200 diluted PE-conjugated anti human Fc in FACS buffer (1×PBS containing 1% BSA) and then incubated at 4° C. for 30 minutes. After that the cells were washed 2 times with PBS and analyzed by Flow cytometric analysis.

[4] = target: T1, Human CD70 on CD70-expressing human …; experiment: flow cytometry on Raji cells, detection with PE-conjugated anti-human Fc, MFI(PE)
Procedure: as §2

[5] = target: T2, Recombinant human CD70 extra-cellular domain (ECD) linked to His tag (human, UniProt P32970 39-193); experiment: BLI (Octet RED), antibody on anti-human IgG Fc tips, CD70 ECD-His in solution 200 to 3.13 nM, 1:1 global fit
T2 construct: extracellular domain; Purchased (KACTUS or ACRO biosystems) or made in house; also called human CD70 protein; not shown: His tag
T2 sequence (looked up): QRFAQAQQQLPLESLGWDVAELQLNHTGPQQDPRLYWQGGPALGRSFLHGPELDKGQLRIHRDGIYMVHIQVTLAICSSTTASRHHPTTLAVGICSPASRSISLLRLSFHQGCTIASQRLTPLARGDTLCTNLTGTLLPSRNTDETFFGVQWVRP
Procedure: (§3) Recombinant proteins consisting of the CD70 extra-cellular domain (ECD) linked to His tag were either purchased (from KACTUS or ACRO biosystems) or synthesized in house. 2E7 antibody or 2E7-LD038 conjugate (20 nM) was immobilized on anti-human IgG Fc biosensor tips (Fortebio). Binding assays using varying concentration from 200 nM down to 3.13 nM of recombinant protein in solution were performed using Octet RED (Fortebio). Association time was set at 180 seconds and dissociation time was set at 300 seconds. Binding affinity was calculated using ForteBio Data Acquisition 6.3 software (ForteBio). Affinity was derived by fitting the kinetic data to a 1:1 Langmuir binding model utilizing global fitting algorithms.

[6] = target: T3, Recombinant cynomolgus monkey CD70 extra-cellular domain (ECD) linked to His tag (cynomolgus monkey, UniProt A0A2K5WTU9 39-190); experiment: as above
T3 construct: extracellular domain; Purchased or made in house; also called Cyno CD70; not shown: His tag
T3 sequence: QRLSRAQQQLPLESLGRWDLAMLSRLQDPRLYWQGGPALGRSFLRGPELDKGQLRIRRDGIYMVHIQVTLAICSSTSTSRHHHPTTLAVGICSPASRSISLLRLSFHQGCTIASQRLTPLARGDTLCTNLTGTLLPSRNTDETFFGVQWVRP
Procedure: as §3

[7] = target: T1, Human CD70 on CD70-expressing human …; experiment: flow cytometry on 786-O cells, detection with PE-conjugated anti-human Fc, MFI(PE)
Procedure: as §2

[8] = target: T1, Human CD70 on CD70-expressing human …; experiment: flow cytometry blocking assay on 786-O cells; blocked ligand: biotinylated human CD27 at 30 ug/ml, detection with PE-conjugated streptavidin
Procedure: as §1

[9] = target: T4, Recombinant mouse CD70 extra-cellular domain (ECD) linked to His tag (mouse, UniProt O55237 45-195); experiment: BLI (Octet RED), antibody on anti-human IgG Fc tips, CD70 ECD-His in solution 200 to 3.13 nM
T4 construct: extracellular domain; Purchased or made in house; not shown: His tag
T4 sequence (looked up): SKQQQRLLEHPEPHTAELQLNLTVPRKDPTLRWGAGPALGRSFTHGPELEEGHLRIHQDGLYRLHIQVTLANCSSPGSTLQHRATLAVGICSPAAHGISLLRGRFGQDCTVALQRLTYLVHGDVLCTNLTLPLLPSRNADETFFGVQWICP
Procedure: as §3

[10] = Hydrophobic interaction chromatography (HIC) of anti-CD70 antibodies; assay type: physicochemical; settings: for Retention time (hydrophobicity): TSK gel Butyl-NPR
Procedure: Antibodies were purified from cleared cell culture supernatants using Protein A chromatography (Protein A resin slurry, 4.5 mL, Bogen, Cat #18-0010-02). Briefly, supernatants were prepared for affinity chromatography and loaded onto the columns and allowed to flow completely through the resin. The columns were washed with binding buffer containing 0.15M NaCl and 0.2M PB, PH7.0. Antibody was eluted with elution buffer containing 0.15M NaCl, 0.1M Glycine and 0.2M PB, PH 3.0. Fractions were collected and neutralized by the addition of 1/10 volume of 1M Tris, PH9.0. The fractions were dialyzed for 2 hours against 1×PBS. Purified antibody was quantified by absorbance at A280. Samples from each step of the protein A chromatography were applied onto 12% SDS-PAGE gels for reduced and non-reduced electrophoresis. The hydrophobicity was assessed with hydrophobic interaction chromatography (HIC) on a TSK gel Butyl-NPR, 4.6×100 mm with Butyl-NPR (Tosoh corporation) using a Waters HPLC 2695 system.

[11] = target: T2, Recombinant human CD70 extra-cellular …; experiment: BLI (Octet RED), conjugate on anti-human IgG Fc tips, CD70 ECD-His in solution 200 to 3.13 nM, 1:1 global fit
Procedure: as §3

[12] = target: T3, Recombinant cynomolgus monkey CD70 …; experiment: as above
Procedure: as §3

[13] = target: T4, Recombinant mouse CD70 extra-cellular …; experiment: BLI (Octet RED), conjugate on anti-human IgG Fc tips, CD70 ECD-His in solution 200 to 3.13 nM
Procedure: as §3

Molecule | IC50 [1] | IC50 [2] | EC50 [3] | EC50 [4] | EC50 [7] | IC50 [8] | Retention time (hydrophobicity) [10] | also measured
B1 | 8.78 nM | 7.04 nM | 1.59 nM | 19.9 nM | 2.81 nM | 6.24 nM | – | Kd [5]: 0.807 nM; koff [5]: 0.000254 s⁻¹; kon [5]: 314000 M⁻¹ s⁻¹; Kd [6]: 0.39 nM; koff [6]: 0.000241 s⁻¹; kon [6]: 618000 M⁻¹ s⁻¹; binding result [9]: no binding (tested: 200 nM)
B2 | – | – | – | – | – | – | 10.24 min | hydrophobicity compared with parent antibody 69A7 [10]: slightly more hydrophobic than the parent antibody
B3 | 11.6 nM | 8.03 nM | 1.45 nM | 26.4 nM | 2.16 nM | 7.35 nM | – | Kd [11]: 0.12 nM; koff [11]: 5.45e-05 s⁻¹; kon [11]: 456000 M⁻¹ s⁻¹; Kd [12]: 0.144 nM; koff [12]: 9.4e-05 s⁻¹; kon [12]: 652000 M⁻¹ s⁻¹; binding result [13]: no binding (tested: 200 nM)
B4 | – | – | – | – | – | – | 9.06 min | –
B5 | – | – | – | – | – | – | 8.81 min | –
